In PMC5283298:

How the values were obtained:
[1] = biological target: microtubules (polymer of alpha and beta tubulin); assay: single-molecule TIRF microscopy on microtubules
HaloTag-KIF21B 1-657 = assay: single-molecule photobleaching step counting
[2] = biological target: HaloTag-KIF21B full-length (FL); assay: single-molecule photobleaching step counting

Chain of HaloTag-KIF21B 1-657 (domain or fragment) (O75037 1-657): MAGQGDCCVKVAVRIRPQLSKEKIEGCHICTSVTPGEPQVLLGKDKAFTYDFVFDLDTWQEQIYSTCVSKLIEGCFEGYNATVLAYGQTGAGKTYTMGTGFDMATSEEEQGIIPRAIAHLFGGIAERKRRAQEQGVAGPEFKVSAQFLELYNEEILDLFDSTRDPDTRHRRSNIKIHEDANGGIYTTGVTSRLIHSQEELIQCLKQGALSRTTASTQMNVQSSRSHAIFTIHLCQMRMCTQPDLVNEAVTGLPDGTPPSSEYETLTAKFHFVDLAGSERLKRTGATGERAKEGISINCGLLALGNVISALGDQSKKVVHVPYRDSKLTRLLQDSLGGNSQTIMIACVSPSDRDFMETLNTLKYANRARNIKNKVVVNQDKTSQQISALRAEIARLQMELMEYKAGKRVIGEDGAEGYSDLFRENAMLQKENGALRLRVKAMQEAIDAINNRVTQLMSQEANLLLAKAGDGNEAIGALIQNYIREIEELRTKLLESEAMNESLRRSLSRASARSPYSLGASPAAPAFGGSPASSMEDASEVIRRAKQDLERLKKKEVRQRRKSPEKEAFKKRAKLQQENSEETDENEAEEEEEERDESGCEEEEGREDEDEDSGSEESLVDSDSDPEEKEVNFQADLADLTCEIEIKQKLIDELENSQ
Chain of microtubules (polymer of alpha and beta tubulin) (P68363 whole entry, chain 1 of 2): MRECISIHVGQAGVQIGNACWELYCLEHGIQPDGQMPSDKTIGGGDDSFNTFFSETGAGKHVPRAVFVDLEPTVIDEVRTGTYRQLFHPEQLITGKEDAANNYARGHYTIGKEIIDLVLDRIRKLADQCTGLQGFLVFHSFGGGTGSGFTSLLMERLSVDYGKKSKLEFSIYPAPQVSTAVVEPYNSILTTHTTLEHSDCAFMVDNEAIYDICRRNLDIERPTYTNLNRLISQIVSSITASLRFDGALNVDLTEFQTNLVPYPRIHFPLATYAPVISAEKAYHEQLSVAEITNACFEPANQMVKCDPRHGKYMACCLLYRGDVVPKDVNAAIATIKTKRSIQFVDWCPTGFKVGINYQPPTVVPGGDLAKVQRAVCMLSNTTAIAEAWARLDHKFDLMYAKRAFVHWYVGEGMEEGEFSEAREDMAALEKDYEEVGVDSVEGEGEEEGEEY
Chain of microtubules (polymer of alpha and beta tubulin) (A8K068 whole entry, chain 2 of 2, further chain): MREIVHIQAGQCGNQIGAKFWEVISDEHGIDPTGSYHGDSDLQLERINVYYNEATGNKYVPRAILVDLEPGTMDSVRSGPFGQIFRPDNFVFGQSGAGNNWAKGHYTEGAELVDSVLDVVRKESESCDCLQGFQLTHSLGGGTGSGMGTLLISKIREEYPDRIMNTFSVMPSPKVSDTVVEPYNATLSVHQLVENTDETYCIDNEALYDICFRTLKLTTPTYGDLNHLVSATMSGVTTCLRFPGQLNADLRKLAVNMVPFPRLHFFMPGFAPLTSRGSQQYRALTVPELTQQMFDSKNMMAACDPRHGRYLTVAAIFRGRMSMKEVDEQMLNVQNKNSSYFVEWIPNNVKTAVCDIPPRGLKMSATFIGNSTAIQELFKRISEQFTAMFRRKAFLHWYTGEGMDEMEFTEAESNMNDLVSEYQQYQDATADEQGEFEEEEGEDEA
Chain of HaloTag-KIF21B full-length (FL) (natural protein) (O75037 whole entry): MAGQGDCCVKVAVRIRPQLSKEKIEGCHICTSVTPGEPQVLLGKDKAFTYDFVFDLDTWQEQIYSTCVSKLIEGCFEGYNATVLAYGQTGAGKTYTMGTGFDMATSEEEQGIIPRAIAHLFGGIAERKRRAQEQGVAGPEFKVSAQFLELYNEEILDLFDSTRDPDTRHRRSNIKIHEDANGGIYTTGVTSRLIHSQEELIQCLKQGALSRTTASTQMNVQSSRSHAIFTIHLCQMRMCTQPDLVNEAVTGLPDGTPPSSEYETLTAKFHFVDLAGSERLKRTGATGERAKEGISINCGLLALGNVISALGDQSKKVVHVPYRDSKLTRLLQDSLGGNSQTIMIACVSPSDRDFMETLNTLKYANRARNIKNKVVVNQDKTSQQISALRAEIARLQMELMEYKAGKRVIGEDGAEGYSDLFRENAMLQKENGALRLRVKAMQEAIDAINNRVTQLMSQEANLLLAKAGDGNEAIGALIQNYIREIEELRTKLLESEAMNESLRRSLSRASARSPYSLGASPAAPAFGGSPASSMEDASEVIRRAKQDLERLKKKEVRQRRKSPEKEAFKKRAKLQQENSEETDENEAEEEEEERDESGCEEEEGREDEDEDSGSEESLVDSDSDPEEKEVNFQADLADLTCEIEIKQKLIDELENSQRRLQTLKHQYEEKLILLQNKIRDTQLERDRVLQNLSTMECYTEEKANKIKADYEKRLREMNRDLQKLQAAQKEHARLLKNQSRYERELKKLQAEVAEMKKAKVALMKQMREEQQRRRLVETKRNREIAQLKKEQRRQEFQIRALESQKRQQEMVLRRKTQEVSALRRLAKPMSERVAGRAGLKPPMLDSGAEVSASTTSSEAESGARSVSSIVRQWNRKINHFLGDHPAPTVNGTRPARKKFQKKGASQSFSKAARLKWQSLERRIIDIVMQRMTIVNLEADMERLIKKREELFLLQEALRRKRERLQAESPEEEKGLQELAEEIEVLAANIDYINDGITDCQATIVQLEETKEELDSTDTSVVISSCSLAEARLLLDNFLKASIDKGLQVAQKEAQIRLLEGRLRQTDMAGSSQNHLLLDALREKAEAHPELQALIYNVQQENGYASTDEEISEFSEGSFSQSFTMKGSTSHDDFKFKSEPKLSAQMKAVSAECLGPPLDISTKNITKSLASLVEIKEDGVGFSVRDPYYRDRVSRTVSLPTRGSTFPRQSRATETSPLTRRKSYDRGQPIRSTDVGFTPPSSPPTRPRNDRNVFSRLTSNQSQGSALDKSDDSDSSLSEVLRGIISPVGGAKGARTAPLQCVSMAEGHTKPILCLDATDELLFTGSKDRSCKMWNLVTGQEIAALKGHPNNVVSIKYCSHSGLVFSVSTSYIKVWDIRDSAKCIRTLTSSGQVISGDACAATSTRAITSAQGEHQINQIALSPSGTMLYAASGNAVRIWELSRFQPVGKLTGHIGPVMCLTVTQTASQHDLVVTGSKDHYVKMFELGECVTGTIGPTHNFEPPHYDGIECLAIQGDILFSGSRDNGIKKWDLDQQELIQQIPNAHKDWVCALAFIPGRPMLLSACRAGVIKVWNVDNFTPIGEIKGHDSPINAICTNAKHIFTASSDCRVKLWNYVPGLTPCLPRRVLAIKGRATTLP

Substance	particles per μm MT (particles/μm MT) [1]	stoichiometry N (HaloTag-KIF21B 1-657)	stoichiometry N [2]
HaloTag-KIF21B 1-657 (domain or fragment)	0.067	2	–
HaloTag-KIF21B full-length (FL) (natural protein)	0.5	–	2
